Patent US20060018918A1

Legend:
Test in all cases: ELISA on plates coated with the antigen; control serum
native α-lactalbumin = target: native α-lactalbumin
[1] = target: α-lactalbumin stabilized denatured isomer "a"
[2] = target: α-lactalbumin stabilized denatured isomer "c"
[3] = target: α-lactalbumin stabilized denatured isomer "d"

- O.D. (native α-lactalbumin): 0.06 O.D.
- O.D. [1]: 0.06 O.D.
- O.D. [2]: 0.056 O.D.
- O.D. [3]: 0.05 O.D.
Substance: normal mouse serum (control) (polyclonal serum or antibody)
